Data as given in US20230159935, “[…] BIFUNCTIONAL […] AND TRIFUNCTIONAL […] TARGETING Tau” (UNIVERSITY OF FLORIDA RESEARCH FOUNDATION, INCORPORATED, published 2023).

How the values were obtained:
Tau441 (2N4R tau) [1] = target: T1, Tau441 (2N4R tau) (Homo sapiens, UniProt P10636-8 P10636-8:1-441); experiment: EMSA; 400 nM aptamer, 0.2 mg/mL protein, 4 C; details: tags: N-terminal His-tag, SignalChem (biotin-labelled for functional SELEX and BLI)
Description: (§1) To determine the specificity of the circular aptamer against Tau441 protein, 5 μL of 400 nM Tau (IT2a) aptamer or circular aptamer were first incubated with 0.2 mg/mL target Tau441 protein or control proteins (S100B, BSA) at 4° C. for 30 minutes. Then, each sample was loaded onto an 8% native PAGE gel. The gel was run in 1×TBE at 70 V for 10 minutes and 150 V for 40 minutes. Finally, the gel was stained with Coomassie blue for protein detection and scanned in the fluorescein channel using Typhoon for aptamer detection.
(§2) After interaction, each sample was loaded onto the nondenaturing gel for protein detection with Coomassie Brilliant Blue staining (FIG. 13A) and aptamer fluorescence (FIG. 13B) detection. […] Five microliters of 400 nM Tau (IT2a) aptamer or circular aptamer was first incubated with 0.2 mg/mL target Tau441 protein or control proteins at 4° C. for 30 minutes. […] For FIG. 13A and FIG. 13 B, Lanes 1 and 6: Ladder; Lane 2: IT2a aptamer; Lane 3: IT2a aptamer+Tau441 (67 kDa); Lane 4: IT2a aptamer+S100B (9 kDa); Lane 5: IT2a aptamer+BSA (66 kDa); Lane 7: Circular aptamer; Lane 8: Circular aptamer+Tau411 (67 kDa); Lane 9: Circular aptamer+S100B (9 kDa); Lane 10: Circular aptamer+BSA (66 kDa).

[2] = target: T2, Bovine serum albumin (BSA) (Bos taurus, UniProt P02769 P02769:25-607); experiment: EMSA; profile stated same as circular aptamer; details: label: FITC-dT near 3' end; hairpin
T2 sequence (P02769 25-607, one chain of several): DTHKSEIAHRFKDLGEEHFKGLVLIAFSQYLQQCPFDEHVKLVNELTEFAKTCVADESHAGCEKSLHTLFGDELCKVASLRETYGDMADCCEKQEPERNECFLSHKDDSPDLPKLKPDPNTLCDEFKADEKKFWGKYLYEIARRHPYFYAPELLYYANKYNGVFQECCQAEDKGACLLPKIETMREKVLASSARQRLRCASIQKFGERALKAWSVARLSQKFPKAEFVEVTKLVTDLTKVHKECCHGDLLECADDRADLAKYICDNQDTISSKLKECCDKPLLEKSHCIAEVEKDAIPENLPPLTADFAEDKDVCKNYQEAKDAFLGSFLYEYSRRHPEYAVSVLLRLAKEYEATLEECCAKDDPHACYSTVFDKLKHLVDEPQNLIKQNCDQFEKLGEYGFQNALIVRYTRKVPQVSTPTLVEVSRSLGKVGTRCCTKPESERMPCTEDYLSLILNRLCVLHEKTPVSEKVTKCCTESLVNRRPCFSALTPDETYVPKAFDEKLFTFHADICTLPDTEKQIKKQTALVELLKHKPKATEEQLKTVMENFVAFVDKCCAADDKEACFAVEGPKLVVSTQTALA
Description: as §1, §2

Tau441 (2N4R tau) [3] = target: T1, Tau441 (2N4R tau); experiment: dot blot, 250 nM; best flow cytometry shift; Kd only in figure; details: tags: N-terminal His-tag, SignalChem (biotin-labelled for functional SELEX and BLI); label: FAM or 5' Cy5
Description: (§3) FIG. 38A is the flow cytometry results analyzing primary binding between aptamer candidates and Tau 441. FIG. 38B is a dot blot assay showing aptamer binding specificity. FIG. 38A Primary binding analysis between aptamer candidates and Tau 441. FIG. 38B Aptamers binding specificity by dot blot assay. The nitrocellulose membranes were socked in methanol until becoming wet (1 min) then the membranes were washed with PBST solution for 5 mins. BSA, Casein, IgG, Tau and P-Tau (1 μg per protein) were respectively immobilized as striped dots on the NC membranes by air-drying. The membranes were blocked with 1% fat-free milk in PBST for 1 hour and incubated with heat-denatured aptamers (250 nM) labeled with FAM for 1 hour at room temperature. Control DNA were random sequence DNA with FAM label. The membranes were washed three times with TBST. Dots were scanned by Typhoon Imaging System (Amersham Biosciences).
The preliminary investigation of binding ability between aptamers and Tau441 was validated by flow cytometry. […] Furthermore, the binding specificity of the selected tau aptamers to full-length Tau441 protein was confirmed by dot blotting by incubating each of the FAM-labeled aptamers with nitrocellulose membranes which have already been immobilized with either target Tau441 protein or nontarget proteins (FIG. 38B). […]

[4] = target: T2, Bovine serum albumin (BSA); experiment: dot blot
Description: as §3
(§4) The preliminary investigation of binding ability between aptamers and Tau441 was validated by flow cytometry. […] Furthermore, the binding specificity of the selected tau aptamers to full-length Tau441 protein was confirmed by dot blotting by incubating each of the FAM-labeled aptamers with nitrocellulose membranes which have already been immobilized with either target Tau441 protein or nontarget proteins (FIG. 38B). […] No cross-reactivity was observed between the aptamers and the nontarget proteins, including: α casein, β casein, BSA (bovine serum albumin), and IgG (immunoglobin G). Particularly, the membranes were blocked by milk after immobilizing with each protein which further illustrated the strong specificity of the obtained aptamers.

Tau441 (2N4R tau) [5] = target: T1, Tau441 (2N4R tau); experiment: dot blot, 250 nM; details: tags: N-terminal His-tag, SignalChem (biotin-labelled for functional SELEX and BLI); label: FAM
Description: as §3, §4

[6] = target: T2, Bovine serum albumin (BSA); experiment: EMSA; specificity control; details: label: one or two FITC-dT
Description: as §1, §2

Tau441 (2N4R tau) [7] = target: T1, Tau441 (2N4R tau); experiment: dot blot, 100 nM; stronger than BW1, BW1a, BW1b; details: tags: N-terminal His-tag, SignalChem (biotin-labelled for functional SELEX and BLI); label: 5' Cy5
Description: The nitrocellulose membranes were socked in methanol till it becomes wet (1 min) then the membranes were washed with TBST solution for 5 mins. Tau protein (stripped band 0.5 μg) were dripped on the NC membranes in every dot and then waited to dry (2 mins). The membranes were blocked with 1% fat-free milk in TBST for 1 hour and were respectively incubated with series of heat denatured aptamers (250 nM) for 1 hour in blocking buffer (contain 0.5 mM Mg²⁺) at room temperature. Next the membrane was washed for three times by TBST, 5 min for each time. Dots were scanned simultaneously by a Typhoon Imaging System (Amersham Biosciences).

T1 sequence (P10636 other isoform, or with tags, fused parts or gaps): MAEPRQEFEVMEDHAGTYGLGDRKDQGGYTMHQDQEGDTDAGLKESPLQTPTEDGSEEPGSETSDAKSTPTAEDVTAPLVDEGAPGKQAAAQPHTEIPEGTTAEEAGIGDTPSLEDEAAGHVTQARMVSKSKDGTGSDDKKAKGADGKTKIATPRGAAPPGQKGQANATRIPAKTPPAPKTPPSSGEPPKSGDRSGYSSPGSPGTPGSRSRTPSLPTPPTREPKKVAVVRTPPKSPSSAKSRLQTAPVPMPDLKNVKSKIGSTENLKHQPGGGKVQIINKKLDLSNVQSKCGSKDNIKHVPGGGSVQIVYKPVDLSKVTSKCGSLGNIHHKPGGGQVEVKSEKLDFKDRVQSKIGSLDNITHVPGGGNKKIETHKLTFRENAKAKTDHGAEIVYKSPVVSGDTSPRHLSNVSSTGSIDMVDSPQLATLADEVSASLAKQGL

B1: IT2a Tau aptamer (13-base extended) (ssDNA)
DNA: TGACTGATTTACGGAAGCTGAATAAGGACTGCTTAGGATTGCGATGATTCAGCTTC
- binding result (Tau441 (2N4R tau) [1]; label: FITC-dT near 3' end, hairpin): binds
- binding result [2]: no binding

B2: BW1 (ssDNA)
DNA: TCACCTGAGACTTGACGATGGCATCACTCCCCCCCACCTATTACATCATCATAAATTGAGTGCTATCGTCTGTCCA
- binding result (Tau441 (2N4R tau) [3]): binds
- binding result ([4]; label: FAM or 5' Cy5): no binding

B3: BW10 (ssDNA)
DNA: TCACCTGAGACTTGACGATGGCAATCCCCCCGACACCGAATCCTAAGCGAACAACGCGAGTGCTATCGTCTGTCCA
- binding result (Tau441 (2N4R tau) [5]): binds
- binding result ([4]; label: FAM): no binding

B4: BW6 (ssDNA)
DNA: TCACCTGAGACTTGACGATGGTCAGAACGACGCGCCCCCCACCTCATTCATTATTTTGAGTGCTATCGTCTGTCCA
- binding result (Tau441 (2N4R tau) [5]): binds
- binding result ([4]; label: FAM): no binding

B5: BW4 (ssDNA)
DNA: TCACCTGAGACTTGACGATGGTTTAACTCCCCCACGCCCCCCGCCAACCCATCTCCAGAGTGCTATCGTCTGTCCA
- binding result (Tau441 (2N4R tau) [5]): binds
- binding result ([4]; label: FAM): no binding

B6: BW2 (ssDNA)
DNA: TCACCTGAGACTTGACGATGGCCTCCCCCTCACGCACTCTTCCGTTTCTTCTTATCTGAGTGCTATCGTCTGTCCA
- binding result (Tau441 (2N4R tau) [5]): binds
- binding result ([4]; label: FAM): no binding

B7: BW9 (ssDNA)
DNA: TCACCTGAGACTTGACGATGGGAACAAACACCGCGACCACCCCCCCACTTAACTCCTGAGTGCTATCGTCTGTCCA
- binding result (Tau441 (2N4R tau) [5]): binds
- binding result ([4]; label: FAM): no binding

B8: BW5 (ssDNA)
DNA: TCACCTGAGACTTGACGATGGTACGACGGCCCCCCGATTATGCGACTACTTGATTTGAGTGCTATCGTCTGTCCA
- binding result (Tau441 (2N4R tau) [5]): binds
- binding result ([4]; label: FAM): no binding

B9: Circular Tau-TfR bispecific aptamer (structured_DNA)
DNA: TGACTGATTTACGGAAGCTGAATAAGGACTGCTTAGGATTGCGATGATTCAGCTTCCGTAAATCAGTCAGAAGGCGTGGTACCACGCTTTC
- binding result (Tau441 (2N4R tau) [1]; label: one or two FITC-dT): binds
- binding result [6]: no binding

B10: BW1c (ssDNA)
DNA: GACGATAGCATCACTCCCCCCCACCTATTACATCATCATAAATTGAGTGCTATCGTC
- binding result (Tau441 (2N4R tau) [7]): binds

B11: BW8 (ssDNA)
DNA: TCACCTGAGACTTGACGATGGCACTACCCCTCCCTACTAAGCACGGTATCTTGTACTGAGTGCTATCGTCTGTCCA
- binding result (Tau441 (2N4R tau) [5]): binds
- binding result ([4]; label: FAM): no binding

B12: BW7 (ssDNA)
DNA: TCACCTGAGACTTGACGATGGTGACCACCCCCCACGCACACACACCTCTTCCATCCTGAGTGCTATCGTCTGTCCA
- binding result (Tau441 (2N4R tau) [5]): binds
- binding result ([4]; label: FAM): no binding

B13: BW3 (ssDNA)
DNA: TCACCTGAGACTTGACGATGGAACTCCCCCCACCATTATCAGCGCACCACCATTGTAGAGTGCTATCGTCTGTCCA
- binding result (Tau441 (2N4R tau) [5]): binds
- binding result ([4]; label: FAM): no binding
